Experimental data published in patent US20240059770A1.

Target: human glucose-dependent insulinotrophic polypeptide (GIP) (human)
Test: sandwich immunoassay (MSD ECL): C-Terminal Antibody as capture, ruthenium-labelled N-Terminal Antibody as detection

human glucose-dependent insulinotrophic polypeptide (GIP) (human), sequence (peptide, as listed by the source): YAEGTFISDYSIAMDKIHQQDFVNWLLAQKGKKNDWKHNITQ

percent cross-reactivity (ECL against human oxyntomodulin (53-89), blank subtracted): 0.12%
B1: Anti-Human Oxyntomodulin N-Terminal Antibody (antibody, V domains shown)
VH: QIQLVQSGPELKKPGETVKISCKASGYTFTDYAFSWVKQAPGKGLKWMGWITTNTGEATYADDFKGRFAFSLETSASTAYLQISNLKNEDTATYFCARETEYGDSSWFGHWGQGTLVTVSA
VL: DIVLTQSPASLAVSLGQRATISCRASESVDGWGNSFMHWYQQKPGQPPKLLIYLATYRVAGIPARFSGSGSRTDFTLTINPVEADDVATYYCMQSSEDPYTFGGGTKLEIKR
